B1: GST/III1H,8,10 (other)
chain: IQWNAPQPSHISKYILRWRPKNSVGRWKEATIPGHLNSYTIKGLKPGVVYEGQLISIQQYGHQEVTRFDFTTTSTSTAVPPPTDLRFTNIGPDTMRVTWAPPPSIDLTNFLVRYSPVKNEEDVAELSISPSDNAVVLTNLLPGTEYVVSVSSVYEQHESTPLRGRQKTVSDVPRDLEVVAATPTSLLISWDAPAVTVRYYRITYGETGGNSPVQEFTVPGSKSTATISGLKPGVDYTITVYAVTGRGDSPASSKPISI
notes: Coated on tissue culture plastic in the assays; also called FNIII1H,8,10; not shown: glutathione S-transferase (GST) tag encoded by vector pGEX-2T (Amersham Biosciences)
B2: GST/III1H,8^RGD (other)
chain: IQWNAPQPSHISKYILRWRPKNSVGRWKEATIPGHLNSYTIKGLKPGVVYEGQLISIQQYGHQEVTRFDFTTTSTSTAVPPPTDLRFTNIGPDTMRVTWAPPPSIDLTNFLVRYSPVKNEEDVAELSISPSDNAVVLTNLLPGTEYVVSVSSVYGRGDSPASSTPLRGRQKT
notes: Coated on tissue culture plastic in the assays; also called FNIII1H,8^RGD; not shown: glutathione S-transferase (GST) tag encoded by vector pGEX-2T (Amersham Biosciences)

Experiments:
Human plasma fibronectin = molecular target: T1, Human plasma fibronectin (human, UniProt P02751 32-2477, Alexa^488 label where used as FN^488); assay: Alexa488-fibronectin added to cell-free wells coated with 400 nM mimetic; fluorescence after 20 h
T1 construct: Used coated on plastic at 10 nM, or soluble at 10 µg/ml, unlabeled or Alexa488-labeled; also called full-length fibronectin; FN
T1 sequence (P02751 other isoform, or with tags, fused parts or gaps): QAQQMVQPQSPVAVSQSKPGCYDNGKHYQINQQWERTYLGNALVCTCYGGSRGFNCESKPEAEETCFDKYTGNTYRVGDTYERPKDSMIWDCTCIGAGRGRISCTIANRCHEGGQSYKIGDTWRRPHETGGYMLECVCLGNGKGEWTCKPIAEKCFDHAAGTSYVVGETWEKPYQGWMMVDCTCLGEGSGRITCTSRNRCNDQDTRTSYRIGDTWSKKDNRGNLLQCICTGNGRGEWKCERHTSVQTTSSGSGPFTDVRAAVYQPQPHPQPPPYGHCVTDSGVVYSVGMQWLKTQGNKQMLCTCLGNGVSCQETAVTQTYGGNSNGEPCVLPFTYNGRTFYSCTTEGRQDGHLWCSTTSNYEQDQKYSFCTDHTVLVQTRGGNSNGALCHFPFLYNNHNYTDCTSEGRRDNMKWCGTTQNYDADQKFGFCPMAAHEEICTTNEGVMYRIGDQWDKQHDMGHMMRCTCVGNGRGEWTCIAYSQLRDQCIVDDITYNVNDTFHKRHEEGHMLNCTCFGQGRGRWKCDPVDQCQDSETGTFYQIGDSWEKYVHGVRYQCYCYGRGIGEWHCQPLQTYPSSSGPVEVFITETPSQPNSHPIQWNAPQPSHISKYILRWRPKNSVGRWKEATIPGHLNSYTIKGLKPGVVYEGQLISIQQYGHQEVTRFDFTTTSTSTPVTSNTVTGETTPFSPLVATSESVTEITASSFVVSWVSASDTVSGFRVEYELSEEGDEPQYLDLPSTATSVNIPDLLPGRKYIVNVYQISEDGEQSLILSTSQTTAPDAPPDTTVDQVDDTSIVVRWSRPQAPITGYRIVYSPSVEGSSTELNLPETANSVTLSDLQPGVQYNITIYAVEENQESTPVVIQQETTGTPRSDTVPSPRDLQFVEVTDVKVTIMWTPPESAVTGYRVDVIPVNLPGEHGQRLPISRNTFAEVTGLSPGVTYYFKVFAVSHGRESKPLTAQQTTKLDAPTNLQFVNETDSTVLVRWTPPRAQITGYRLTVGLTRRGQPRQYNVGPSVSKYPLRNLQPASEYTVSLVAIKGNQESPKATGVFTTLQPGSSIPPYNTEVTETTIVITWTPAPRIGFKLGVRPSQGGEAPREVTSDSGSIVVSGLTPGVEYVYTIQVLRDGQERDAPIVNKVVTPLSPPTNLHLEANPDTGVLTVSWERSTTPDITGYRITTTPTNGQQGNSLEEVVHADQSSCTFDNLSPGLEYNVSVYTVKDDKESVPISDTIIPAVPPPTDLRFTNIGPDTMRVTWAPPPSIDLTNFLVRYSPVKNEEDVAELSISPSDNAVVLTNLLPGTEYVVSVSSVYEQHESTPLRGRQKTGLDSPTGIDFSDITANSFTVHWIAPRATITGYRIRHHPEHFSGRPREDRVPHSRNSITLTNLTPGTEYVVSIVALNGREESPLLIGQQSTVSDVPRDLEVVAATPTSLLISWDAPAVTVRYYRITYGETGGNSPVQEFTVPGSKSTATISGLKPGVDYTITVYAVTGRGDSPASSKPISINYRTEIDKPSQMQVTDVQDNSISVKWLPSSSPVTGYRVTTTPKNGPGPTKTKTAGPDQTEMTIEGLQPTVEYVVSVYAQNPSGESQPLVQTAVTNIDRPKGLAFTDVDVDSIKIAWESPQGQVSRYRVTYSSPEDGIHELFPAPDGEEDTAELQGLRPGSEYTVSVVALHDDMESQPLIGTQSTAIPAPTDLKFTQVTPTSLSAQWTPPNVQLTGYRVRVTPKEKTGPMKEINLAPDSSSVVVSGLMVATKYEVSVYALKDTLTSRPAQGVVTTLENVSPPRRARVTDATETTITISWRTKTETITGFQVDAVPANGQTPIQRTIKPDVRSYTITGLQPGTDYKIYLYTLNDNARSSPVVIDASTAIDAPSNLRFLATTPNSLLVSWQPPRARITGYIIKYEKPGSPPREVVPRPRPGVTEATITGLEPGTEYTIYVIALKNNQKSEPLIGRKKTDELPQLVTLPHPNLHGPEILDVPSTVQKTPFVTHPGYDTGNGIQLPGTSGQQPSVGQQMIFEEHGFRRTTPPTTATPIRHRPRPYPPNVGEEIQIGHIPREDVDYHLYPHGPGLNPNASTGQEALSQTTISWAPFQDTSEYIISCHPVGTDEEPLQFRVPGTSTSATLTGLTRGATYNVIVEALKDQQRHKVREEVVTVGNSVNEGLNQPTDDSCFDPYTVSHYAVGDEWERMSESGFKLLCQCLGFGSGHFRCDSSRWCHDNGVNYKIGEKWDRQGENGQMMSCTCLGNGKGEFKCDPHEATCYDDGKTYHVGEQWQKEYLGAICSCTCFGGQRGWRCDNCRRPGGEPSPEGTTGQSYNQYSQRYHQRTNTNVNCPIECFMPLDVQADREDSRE

[1] = molecular target: T2, FITC-labeled type I collagen (rat, UniProt P02454 152-1207; P02466 86-1125, FITC label); assay: FITC-collagen I added to cell-free, fibronectin-free wells coated with 400 nM mimetic; fluorescence after 20 h
T2 construct: also called FITC-collagen I; collagen I
T2 sequence (P02454 152-1207, chain 1 of 2): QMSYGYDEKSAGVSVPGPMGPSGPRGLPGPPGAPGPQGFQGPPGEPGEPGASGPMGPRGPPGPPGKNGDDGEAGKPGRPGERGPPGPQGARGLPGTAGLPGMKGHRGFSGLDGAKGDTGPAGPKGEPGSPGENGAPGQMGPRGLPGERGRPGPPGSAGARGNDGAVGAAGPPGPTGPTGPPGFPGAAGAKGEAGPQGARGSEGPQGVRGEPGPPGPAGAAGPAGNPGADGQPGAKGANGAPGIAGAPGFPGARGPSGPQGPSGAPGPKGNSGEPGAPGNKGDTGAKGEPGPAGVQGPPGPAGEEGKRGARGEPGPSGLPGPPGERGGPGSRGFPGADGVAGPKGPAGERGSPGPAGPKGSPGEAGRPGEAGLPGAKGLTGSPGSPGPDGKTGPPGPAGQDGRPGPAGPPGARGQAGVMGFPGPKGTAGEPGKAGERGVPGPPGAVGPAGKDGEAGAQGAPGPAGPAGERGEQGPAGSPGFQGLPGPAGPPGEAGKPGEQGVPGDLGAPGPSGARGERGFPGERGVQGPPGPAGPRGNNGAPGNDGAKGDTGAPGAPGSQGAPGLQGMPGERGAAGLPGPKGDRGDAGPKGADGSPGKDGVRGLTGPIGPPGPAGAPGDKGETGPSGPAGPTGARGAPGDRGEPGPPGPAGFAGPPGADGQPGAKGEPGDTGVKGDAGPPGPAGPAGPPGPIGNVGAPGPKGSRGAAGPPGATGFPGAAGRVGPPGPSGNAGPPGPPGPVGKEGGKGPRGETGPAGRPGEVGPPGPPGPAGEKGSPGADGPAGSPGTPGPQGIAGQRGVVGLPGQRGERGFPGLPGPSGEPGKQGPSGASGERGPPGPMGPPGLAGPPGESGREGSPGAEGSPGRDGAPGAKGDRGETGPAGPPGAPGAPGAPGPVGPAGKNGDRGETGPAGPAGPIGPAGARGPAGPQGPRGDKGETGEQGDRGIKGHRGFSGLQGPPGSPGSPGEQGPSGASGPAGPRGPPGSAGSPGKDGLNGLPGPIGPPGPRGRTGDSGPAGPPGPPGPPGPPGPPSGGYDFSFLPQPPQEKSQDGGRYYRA
T2 sequence (P02466 86-1125, chain 2 of 2): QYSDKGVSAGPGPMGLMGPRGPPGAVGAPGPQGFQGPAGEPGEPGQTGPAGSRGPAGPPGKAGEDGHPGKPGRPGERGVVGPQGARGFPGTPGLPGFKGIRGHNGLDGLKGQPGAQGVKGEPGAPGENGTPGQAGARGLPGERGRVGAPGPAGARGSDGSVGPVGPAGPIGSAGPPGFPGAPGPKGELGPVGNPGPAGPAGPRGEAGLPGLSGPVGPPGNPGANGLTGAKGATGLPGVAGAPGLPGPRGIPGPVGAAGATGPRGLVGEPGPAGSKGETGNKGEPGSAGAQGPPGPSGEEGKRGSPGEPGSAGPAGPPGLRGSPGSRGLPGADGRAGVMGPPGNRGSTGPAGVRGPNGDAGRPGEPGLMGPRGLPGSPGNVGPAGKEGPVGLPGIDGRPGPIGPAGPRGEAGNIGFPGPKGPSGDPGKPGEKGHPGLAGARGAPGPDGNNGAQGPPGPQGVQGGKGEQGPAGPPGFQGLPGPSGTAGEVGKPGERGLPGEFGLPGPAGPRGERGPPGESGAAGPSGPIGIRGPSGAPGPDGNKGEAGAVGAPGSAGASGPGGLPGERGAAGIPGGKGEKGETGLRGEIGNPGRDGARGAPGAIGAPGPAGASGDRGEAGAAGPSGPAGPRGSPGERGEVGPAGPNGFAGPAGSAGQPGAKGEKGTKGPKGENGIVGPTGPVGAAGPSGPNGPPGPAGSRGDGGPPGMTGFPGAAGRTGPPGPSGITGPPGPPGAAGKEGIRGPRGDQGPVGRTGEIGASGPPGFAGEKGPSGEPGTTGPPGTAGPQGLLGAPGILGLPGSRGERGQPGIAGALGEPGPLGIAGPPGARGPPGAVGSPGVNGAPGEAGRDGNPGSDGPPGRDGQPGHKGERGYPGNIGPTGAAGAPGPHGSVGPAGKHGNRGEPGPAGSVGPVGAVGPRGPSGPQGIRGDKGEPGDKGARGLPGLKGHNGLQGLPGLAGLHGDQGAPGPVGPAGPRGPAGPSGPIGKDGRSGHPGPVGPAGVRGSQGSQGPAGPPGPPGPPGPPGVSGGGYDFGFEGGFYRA
Protocol: FIGS. 14A-14C show collagen I deposition by cells adherent to matrix mimetics. FN-null MEFs were seeded (3.0×10⁴ cells/cm²) on tissue culture plates pre-coated with matrix mimetics (400 nM). Four hours after seeding, cells were treated with fibronectin (10 μg/ml) and FITC-collagen I (10 μg/ml) for 20 h. In FIG. 14A, control wells received either FITC-collagen I only (+cell, −FN) or FITC collagen I in the absence of both cells and fibronectin (−cells, −FN). […] In FIG. 14B, cells were processed for immunofluorescence microscopy and stained using an antibody against fibronectin. Images represent 1 of 3 experiments. Bar=10 μm. Four hours after seeding, cells were treated with fibronectin (10 μg/ml) and FITC-collagen I ([…]) in the presence of either R1R2 (250 nM) or FNIII11C (250 nM).
The deposition of collagen I into the ECM is dependent on the co-assembly of a fibronectin matrix (Sottile et al., “Fibronectin Polymerization Regulates the Composition and Stability of Extracellular Matrix Fibrils and Cell-Matrix Adhesions,” Mol. Biol. Cell. 13(10):3546-3559 (2002), which is hereby incorporated by reference in its entirety). […] FITC-collagen I deposition was quantified 20 h after fibronectin and collagen addition.

[2] = molecular target: T3, α5β1 integrin on mouse embryonic fibronectin-null fibroblasts (mouse, UniProt P11688 45-1053; P09055 21-798); assay: immunofluorescence of α5 integrin clustering in FN-null MEFs adherent for 4 h to coated substrate
T3 construct: whole, on cells; Endogenous integrin on FN-null MEFs; also called α5β1 integrins; a5β1 integrin
Protocol: FIGS. 16A-16C show substrate-dependent ligation and clustering of α5β1 integrins. FN-null MEFs were seeded at a density of 2.5×10³ cells/cm² (FIG. 16A) or 3×10⁴ cells/cm² (FIG. 16B) onto tissue culture plates precoated with 400 nM of the various fibronectin matrix mimetics or 10 nM full-length fibronectin and allowed to adhere and spread for 4 h. In FIG. 16A, cells were processed for immunofluorescence microscopy and stained using antibodies against α5 integrin and vinculin. Images represent 1 of 3 experiments. Bar=10 μm. In FIG. 16B, cell surface proteins bound to the adhesive substrates were cross-linked using bis(sulfosuccinimidyl)suberate (BS³). Unbound proteins were extracted and […]. α5 integrins were analyzed by immunoblotting.
The preceding Examples therefore indicate that upon adhesion to GST/III1H,8-10, α5β1 integrins preferentially engage the adhesive substrate instead of soluble fibronectin, thus inhibiting the initiation of the matrix assembly process. To assess α5β1 integrin clustering in response to substrate adhesion, FN-null MEFs were allowed to adhere and spread for 4 h on plates pre-coated with saturating densities of matrix mimetics in the absence of soluble fibronectin. α5β1 integrins were visualized by immunofluorescence microscopy. […]

Binder	binding result (Human plasma fibronectin)	binding result [1]	binding result [2]
B1	no binding (tested: 10 µg/ml)	no binding (tested: 10 µg/ml)	–
B2	no binding (tested: 10 µg/ml)	no binding (tested: 10 µg/ml)	no binding (tested: 400 nM coating)
